This is an account of results in US20220267421A1 (INVOX PHARMA, published 2022).

For assay [1], the target named is T1, human MSLN-His-Avi (human, UniProt Q13421 296-598, single biotin (BirA) in the biotinylated form).
T1 construct: Monomeric, made in HEK293-6E; Used both immobilised and in solution; also called hMSLN-His-Avi; biotinylated hMSLN-His-Avi
Briefly: SPR (Biacore), MSLN immobilised, mAb^2 injected. The protocol:
(§1) Human MSLN-His-Avi was immobilised on flow cell 2 on a CM5 Series S BIAcore sensor chip (GE Healthcare, BR100530) using an amine coupling kit (GE Healthcare, BR10050) to approximately 200 response units (RU). Flow cell 1 was left blank for subtraction. HEK293-6E supernatants or purified proteins were adjusted with HBS-EP+(GE Healthcare) to approximately 50 nM anti-MSLN mAb per sample. Samples were injected over flow cell 1 and 2 for 2.5 min at 30 μl/min and then allowed to dissociate in HBS-EP buffer for 2.5 min. Regeneration was achieved by injecting 10 mM glycine pH 1.5 (GE Healthcare, BR100354) for 30 seconds at a rate of 30 μl/min. Subtracted data (flow cell 2−flow cell 1) were analysed using BIAevaluation 3.2 Software (GE Healthcare).
(§2) Binding of the selected anti-MSLN clones in mAb² format, to recombinant human and cyno MSLN-His-Avi antigen was measured by SPR using a Biacore T200 processing unit (GE Healthcare). As previously described, it was desirable to bind more strongly to immobilised antigen than to soluble antigen. To assess the binding properties of the clones, binding kinetics to immobilised MSLN antigen were determined as described in section 2.1.2 and compared to the kinetics obtained when MSLN antigens in solution bound to captured clones.
A general note: Surface plasmon resonance follows binding to a sensor surface in real time, without labels.

For assay [2], the target named is T2, cell surface human mesothelin (MSLN) (human, UniProt Q13421 296-598).
T2 construct: whole, on cells; also called cell surface MSLN
The assay is described as follows: flow cytometry, NCI-H226 cells + 20 nM soluble MSLN. Here is the method: (§3) Cells were centrifuged at 1200 rpm for 3 min and resuspended in ice cold FACS buffer made up of DPBS (Life Technologies, 14190169) and 1% BSA (Sigma-Aldrich, A7906) at 2×10⁶ cells/ml and 50 μl per well was seeded in a 96-well V-bottom plate (Costar, 3894). All mAbs tested were diluted in FACS buffer in 120 μl at a concentration range of 0.01-200 nM (4-fold dilutions). The NCI-H226 cells were then centrifuged, supernatant removed and cells resuspended in 100 μl of each mAb dilution and incubated at 4° C. for 45 min. Cells were washed twice by centrifugation with 150 μl FACS buffer, resuspended in 100 μl containing goat anti-human IgG (γ-chain specific) F(ab′)2 fragment-R-Phycoerythrin antibody (Sigma, P8047) diluted 1:1000 in FACS buffer and incubated at 4° C. for 45 min. The cells were washed once with 150 μl FACS buffer and then with 150 μl DPBS, resuspended in 150 μl DPBS containing DAPI (Biotium, 40043) at 1:10.000 and read on the BDCantoll or iQue (Intellicyt). Data was analysed using FlowJo v10 to determine the signal geometric mean for PE for live cells in each well.
(§4) Cell binding assays using OVCAR-3 cells were performed similarly to the assays described in section 2.4. The effect of the presence of soluble MSLN was tested by pre-incubating the antibodies in the presence or absence of soluble MSLN before mixing with cells and determining if the pre-incubation affected binding to MSLN on the cell surface. […] 60 μl from each well was then added to either FACS buffer alone or to FACS buffer containing 60 μl of 40 nM recombinant hMSLN (R&D systems, 3265-MS-050) (to give a final concentration of 20 nM hMSLN) and pre-incubated at room temperature for 1 hour before 100 μl was added to the cells. Bound antibody was detected using goat anti-human anti-Fcγ Alexa-Fluor 488 (Jackson Immunoresearch, 109-546-098).
(§5) The method used was exactly as described in section 3.1.4.
A general note: Flow cytometry measures light scatter and fluorescence of single cells or particles in a stream.

Assay [3] deals with T1, human MSLN-His-Avi. The assay is described as follows: SPR (Biacore), mAb^2 captured on Protein G, MSLN in solution injected. Here is the method:
as §2
(§6) For the capture experiments, clones in mAb² format were captured using a BIAcore sensor series S chip Protein G (GE Healthcare, 29179315). mAb² diluted in HBS-EP buffer (GE Healthcare, BR100188) containing 900 mM […] at 1 μg/ml, were injected individually on flow cell 2, 3 and 4 at 30 μl/min to achieve a response of approximately 100 RU. G1-AA/HeID1.3 was captured on flow cell 1. The recombinant human and cyno MSLN-His-Avi (section 1.1), diluted in HBS-EP buffer containing 900 mM […], were injected on flow cell 1, 2, 3 or 4 as appropriate at a concentration range of 1000 nM to 0.051 nM with 3-fold dilutions for 5 minutes at 70 μl/min and then allowed to dissociate in buffer for 5 minutes. Regeneration was achieved by injecting 10 mM glycine pH1.5 (GE Healthcare, BR100354) and surfactant P20 (GE Healthcare, BR-1000-54) for 20 seconds at a rate of 30 μl/min. Subtracted data (flow cell 2−flow cell 1, flow cell 3−flow cell 1, or flow cell 4−flow cell 1) were analysed using BIAevaluation 3.2 Software (GE Healthcare) to identify binding using the model 1:1 binding, local Rmax and with refractive index (RI) constant 0.

For another assay, the target named is T3, cynomolgus MSLN-His-Avi (cynomolgus, single biotin (BirA) in the biotinylated form).
T3 construct: Monomeric, made in HEK293-6E; also called cMSLN-His-Avi; cyno MSLN-His-Avi
T3 chain: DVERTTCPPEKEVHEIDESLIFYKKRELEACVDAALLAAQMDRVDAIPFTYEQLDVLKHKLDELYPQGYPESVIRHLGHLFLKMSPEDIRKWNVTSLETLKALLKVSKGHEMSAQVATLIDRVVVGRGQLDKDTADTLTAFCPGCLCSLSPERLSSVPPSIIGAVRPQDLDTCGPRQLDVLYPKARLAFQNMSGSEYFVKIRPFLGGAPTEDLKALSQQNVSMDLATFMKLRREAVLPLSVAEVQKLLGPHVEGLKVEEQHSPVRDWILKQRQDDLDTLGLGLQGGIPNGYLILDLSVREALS
The description is as above. Here is the method:
as §2, §6

For assay [4], the target named is T1, human MSLN-His-Avi. Briefly: ratio of the two SPR KD. The protocol: as §1, §2
as §6, with “μl/min.” for “μl/min. Subtracted data (flow cell 2−flow cell 1, flow cell 3−flow cell 1, or flow cell 4−flow cell 1) were analysed using BIAevaluation 3.2 Software (GE Healthcare) to identify binding using the model 1:1 binding, local Rmax and with refractive index (RI) constant 0.”

Assay [5] concerns the target T2, cell surface human mesothelin (MSLN). Briefly: flow cytometry, NCI-H226 cells. Here is the method:
as §3, §4, §5

T2 sequence (Q13421 other isoform, or with tags, fused parts or gaps limits assumed): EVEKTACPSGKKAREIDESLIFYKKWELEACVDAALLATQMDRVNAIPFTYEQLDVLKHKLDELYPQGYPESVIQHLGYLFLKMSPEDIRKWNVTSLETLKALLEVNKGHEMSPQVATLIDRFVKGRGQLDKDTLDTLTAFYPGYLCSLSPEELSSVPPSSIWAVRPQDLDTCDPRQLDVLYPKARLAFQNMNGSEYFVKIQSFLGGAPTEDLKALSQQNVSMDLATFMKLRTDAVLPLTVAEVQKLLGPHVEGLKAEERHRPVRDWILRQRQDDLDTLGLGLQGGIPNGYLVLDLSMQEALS
T1 sequence (Q13421 other isoform, or with tags, fused parts or gaps): as the sequence (Q13421 other isoform, or with tags, fused parts or gaps limits assumed) above

B1: FS22-053-008-AA/FS28-024-051 mAb^2 (bispecific antibody, human IgG1, kappa, L234A L235A, V domains shown)
VH: EVQLLESGGGLVQPGGSLRLSCAASGFTLSYSSMSWVRQAPGKGLEWVSFITPSTGYTHYADSVKGRFTISRDNSKNTLYLQMNSLRAEDTAVYYCARRALIFDYWGQGTLVTVSS
VL: EIVLTQSPGTLSLSPGERATLSCRASQSVSSSYLAWYQQKPGQAPRLLIYGASSRATGIPDRFSGSGSGTDFTLTISRLEPEDFAVYYCQQASSYPLTFGQGTKVEIKR
notes: also called FS28-024-51
The Kd is the concentration at which binding is half-saturated. Read a high Kd as weaker binding. A word on the EC50: it is the concentration giving half of the maximal effect. In the case of B1, the results for the Kd with human MSLN-His-Avi [1], in the assay with human MSLN-His-Avi [3] and with cynomolgus MSLN-His-Avi were 0.31 nM, 47.5 nM and 148 nM, respectively. Further, the 50% effective concentration (EC50) in assay [2] was 7.47 nM; in assay [5] it was 0.78 nM. In addition, the “Emax (MFI)” value in assay [2] is 1.1e+06 MFI; in assay [5], 801000 MFI. Also, the “Ratio of KD in solution/immobilised for human MSLN-His-Avi” value (“Ratio of KD in solution/immobilised” below) with human MSLN-His-Avi [4] came to 154.

B2: FS22-053-008-AA/FS28-256-014 mAb^2 (bispecific antibody, human IgG1, kappa, L234A L235A, V domains shown)
VH: EVQLLESGGGLVQPGGSLRLSCAASGFTFTDTYMSWVRQAPGKGLEWVSNISPTYSTTNYADSVKGRFTISRDNSKNTLYLQMNSLRAEDTAVYYCARYNAYAAGLDYWGQGTLVTVSS
VL: EIVLTQSPGTLSLSPGERATLSCRASQSVSSSYLAWYQQKPGQAPRLLIYGASSRATGIPDRFSGSGSGTDFTLTISRLEPEDFAVYYCQQSYYYPITFGQGTKVEIKR
B2: in assay [2], the EC50 was 2.72 nM and the “Emax (MFI)” value was determined as 616000 MFI. In assay [5], the EC50 came to 3.11 nM and the “Emax (MFI)” value stood at 771000 MFI.

B3: FS22-053-008-AA/FS28-256-001 mAb^2 (bispecific antibody, human IgG1, kappa, L234A L235A, V domains shown)
VH: EVQLLESGGGLVQPGGSLRLSCAASGFTFTETYMSWVRQAPGKGLEWVSNISPTYSTTNYADSVKGRFTISRDNSKNTLYLQMNSLRAEDTAVYYCARYNSYQGGLDYWGQGTLVTVSS
VL: EIVLTQSPGTLSLSPGERATLSCRASQSVSSSYLAWYQQKPGQAPRLLIYGASSRATGIPDRFSGSGSGTDFTLTISRLEPEDFAVYYCQQHNQYPNTFGQGTKVEIKR
As for B3, in assay [2], the EC50 was 5.36 nM and the “Emax (MFI)” value is 608000 MFI. Further, in assay [5], the EC50 was found to be 4.98 nM and the “Emax (MFI)” value turned out to be 703000 MFI.

B4: FS22-053-008-AA/FS28-256-005 mAb^2 (bispecific antibody, human IgG1, kappa, L234A L235A, V domains shown)
VH: EVQLLESGGGLVQPGGSLRLSCAASGFTFTETYMSWVRQAPGKGLEWVSNISPTYSTTNYADSVKGRFTISRDNSKNTLYLQMNSLRAEDTAVYYCARYNSYQGGLDYWGQGTLVTVSS
VL: EIVLTQSPGTLSLSPGERATLSCRASQSVSSSYLAWYQQKPGQAPRLLIYGASSRATGIPDRFSGSGSGTDFTLTISRLEPEDFAVYYCQQALGYPHTFGQGTKVEIKR
For the molecule B4, the half-maximal effective concentration (EC50) in assay [2] is 3.91 nM; in assay [5] it was 5.3 nM. The “Emax (MFI)” value in assay [2] was determined as 654000 MFI; in assay [5] it was 760000 MFI.

B5: FS22-053-008-AA/FS28-024-052 mAb^2 (bispecific antibody, human IgG1, kappa, L234A L235A, V domains shown)
VH: EVQLLESGGGLVQPGGSLRLSCAASGFTLSYSSMSWVRQAPGKGLEWVSFITPSTGYTHYADSVKGRFTISRDNSKNTLYLQMNSLRAEDTAVYYCARRALLFDYWGQGTLVTVSS
VL: EIVLTQSPGTLSLSPGERATLSCRASQSVSSSYLAWYQQKPGQAPRLLIYGASSRATGIPDRFSGSGSGTDFTLTISRLEPEDFAVYYCQQASSYPLTFGQGTKVEIKR
notes: also called FS28-024-52
With B5, the Kd in the assay with human MSLN-His-Avi [1] turned out to be 0.36 nM; with human MSLN-His-Avi [3], 33.1 nM; with cynomolgus MSLN-His-Avi, 185 nM. The EC50 in assay [2] amounted to 4.28 nM; in assay [5], 1.32 nM. Further, the “Emax (MFI)” value in assay [2] was found to be 986000 MFI; in assay [5] it was 958000 MFI. For the same molecule, in the assay with human MSLN-His-Avi [4], the “Ratio of KD in solution/immobilised” value turned out to be 92.3.

B6: FS22-053-008-AA/FS28-256-018 mAb^2 (bispecific antibody, human IgG1, kappa, L234A L235A, V domains shown)
VH: EVQLLESGGGLVQPGGSLRLSCAASGFTFTQTYMSWVRQAPGKGLEWVSNISPTYSTTNYADSVKGRFTISRDNSKNTLYLQMNSLRAEDTAVYYCARYNAYQIGLDYWGQGTLVTVSS
VL: EIVLTQSPGTLSLSPGERATLSCRASQSVSSSYLAWYQQKPGQAPRLLIYGASSRATGIPDRFSGSGSGTDFTLTISRLEPEDFAVYYCQQSYYYPITFGQGTKVEIKR
B6: in assay [2], the EC50 amounted to 4.6 nM and the “Emax (MFI)” value was found to be 494000 MFI. In assay [5], a half-maximal response (EC50) required 6.98 nM and the “Emax (MFI)” value is 637000 MFI.

B7: FS22-053-008-AA/FS28-024-053 mAb^2 (bispecific antibody, human IgG1, kappa, L234A L235A, V domains shown)
VH: EVQLLESGGGLVQPGGSLRLSCAASGFTLSYSSMSWVRQAPGKGLEWVSFITPSTGYTHYADSVKGRFTISRDNSKNTLYLQMNSLRAEDTAVYYCARRALVFDYWGQGTLVTVSS
VL: EIVLTQSPGTLSLSPGERATLSCRASQSVSSSYLAWYQQKPGQAPRLLIYGASSRATGIPDRFSGSGSGTDFTLTISRLEPEDFAVYYCQQASSYPLTFGQGTKVEIKR
notes: also called FS28-024-53
As for B7, the Kd turned out to be 0.89 nM with human MSLN-His-Avi [1], 49.2 nM with human MSLN-His-Avi [3] and 78.3 nM with cynomolgus MSLN-His-Avi. The EC50 came out at 7.52 nM in assay [2] and 1.19 nM in assay [5]. The “Emax (MFI)” value came to 965000 MFI in assay [2] and 914000 MFI in assay [5]. Also, in the assay with human MSLN-His-Avi [4], the “Ratio of KD in solution/immobilised” value was determined as 55.3.
